Data published in publication PMC3581539, “Biochemical and Mutational Analysis of a Novel Nicotinamidase from Oceanobacillus iheyensis HTE831” (PLoS ONE, 2013).

How the values were obtained:
NC(=O)c1cnccn1 = test: steady-state kinetics (Km), GDH-coupled spectrophotometric assay; type: biochemical, Oceanobacillus iheyensis
NC(=O)c1cccnc1 = test: as above; type: biochemical, Oceanobacillus iheyensis; settings: Zn2+ active site
nicotinamidase (OiNIC) = target: T1, nicotinamidase (OiNIC) (Oceanobacillus iheyensis, UniProt Q8ESQ6)
T1 construct: gene OB0565
T1 sequence (Q8ESQ6 1-183): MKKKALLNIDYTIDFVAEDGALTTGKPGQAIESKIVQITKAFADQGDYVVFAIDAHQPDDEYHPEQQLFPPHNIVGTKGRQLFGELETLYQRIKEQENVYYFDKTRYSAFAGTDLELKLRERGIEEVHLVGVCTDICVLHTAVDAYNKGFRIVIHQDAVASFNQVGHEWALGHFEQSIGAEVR

[1] = substrate: NC(=O)c1cccnc1; test: steady-state kinetics (Km), HPLC and GDH-coupled assay; type: biochemical, Oceanobacillus iheyensis; settings: Zn2+ active site
[2] = substrate: CCOC(=O)c1cccnc1; test: steady-state kinetics (Km), HPLC; type: biochemical, Oceanobacillus iheyensis; settings: Zn2+
[3] = substrate: COC(=O)c1cccnc1; test: steady-state kinetics (Km), HPLC; type: biochemical, Oceanobacillus iheyensis; settings: Zn2+
[4] = substrate: Cc1cncc(C(N)=O)c1; test: steady-state kinetics (Km), GDH-coupled spectrophotometric assay; type: biochemical, Oceanobacillus iheyensis; settings: Zn2+
[5] = substrate: NC(=O)c1cnccn1; test: as above; type: biochemical, Oceanobacillus iheyensis; settings: Zn2+ active site

Molecule: nicotinamidase (OiNIC) (Oceanobacillus iheyensis HTE831; C133A)
- Km (NC(=O)c1cnccn1; Zn2+ active site): 0.36 ± 0.02 mM
- kcat (NC(=O)c1cnccn1; Zn2+ active site): 3.31 ± 0.1 s⁻¹
- kcat/Km (NC(=O)c1cnccn1; Zn2+ active site): 9190 M⁻¹ s⁻¹

Molecule: nicotinamidase (OiNIC) (Oceanobacillus iheyensis HTE831; E65H)
- Km (NC(=O)c1cccnc1): 0.13 ± 0.01 mM
- kcat (NC(=O)c1cccnc1): 5.63 ± 0.2 s⁻¹
- kcat/Km (NC(=O)c1cccnc1): 42600 M⁻¹ s⁻¹

Molecule: O=Cc1cccnc1 [nicotinaldehyde]
- Ki (nicotinamidase (OiNIC)): 3.4 µM

Molecule: nicotinamidase (OiNIC) (Oceanobacillus iheyensis HTE831; F69W)
- Km (NC(=O)c1cnccn1; Zn2+ active site cavity): 0.50 ± 0.02 mM
- kcat (NC(=O)c1cnccn1; Zn2+ active site cavity): 3.94 ± 0.1 s⁻¹
- kcat/Km (NC(=O)c1cnccn1; Zn2+ active site cavity): 7900 M⁻¹ s⁻¹

B1: nicotinamidase (OiNIC) (Oceanobacillus iheyensis HTE831) (protein)
chain: MKKKALLNIDYTIDFVAEDGALTTGKPGQAIESKIVQITKAFADQGDYVVFAIDAHQPDDEYHPEQQLFPPHNIVGTKGRQLFGELETLYQRIKEQENVYYFDKTRYSAFAGTDLELKLRERGIEEVHLVGVCTDICVLHTAVDAYNKGFRIVIHQDAVASFNQVGHEWALGHFEQSIGAEVR
- Km [1]: 0.26 ± 0.02 mM
- kcat [1]: 11.65 ± 0.1 s⁻¹
- kcat/Km [1]: 43500 M⁻¹ s⁻¹
- Km [2]: 1.02 ± 0.01 mM
- kcat [2]: 0.1 ± 0.01 s⁻¹
- kcat/Km [2]: 100 M⁻¹ s⁻¹
- Km [3]: 1.03 ± 0.01 mM
- kcat [3]: 0.32 ± 0.02 s⁻¹
- kcat/Km [3]: 310 M⁻¹ s⁻¹
- Km [4]: 0.68 ± 0.02 mM
- kcat [4]: 5.1 ± 0.02 s⁻¹
- kcat/Km [4]: 7500 M⁻¹ s⁻¹
- Km [5]: 0.81 ± 0.01 mM
- kcat [5]: 2.6 ± 0.1 s⁻¹
- kcat/Km [5]: 3200 M⁻¹ s⁻¹
